From PMC9352680, “A comprehensive thermodynamic model for RNA binding by the Saccharomyces cerevisiae Pumilio protein PUF4”

Target: T1, PUF4 RNA-binding domain (Saccharomyces cerevisiae, UniProt P25339 537-888)
T1 sequence: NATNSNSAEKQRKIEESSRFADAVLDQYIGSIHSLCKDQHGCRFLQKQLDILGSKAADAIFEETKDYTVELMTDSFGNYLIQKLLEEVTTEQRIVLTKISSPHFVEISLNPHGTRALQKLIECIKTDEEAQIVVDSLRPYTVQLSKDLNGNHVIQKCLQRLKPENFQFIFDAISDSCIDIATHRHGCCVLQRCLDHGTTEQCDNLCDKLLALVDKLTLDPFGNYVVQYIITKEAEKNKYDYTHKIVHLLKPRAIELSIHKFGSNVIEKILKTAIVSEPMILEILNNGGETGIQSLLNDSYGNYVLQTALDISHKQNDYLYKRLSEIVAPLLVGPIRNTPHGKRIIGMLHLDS
Test: Mg; RNA-MaP; 20 mM Na-HEPES pH 7.4, 30 mM KOAc, 0.75 mM MgCl2, 0.1% Tween-20, 5% glycerol, 0.1 mg/mL BSA, 2 mM DTT; 25 C; 0.0125-409.6 nM protein
Conditions: tags: N-His6-TEV cleaved; C-SNAP kept, Cy3B-labelled; label: tethered on chip by stalled RNA polymerase

Binder: UCUCUUUGUACAAAAUUCUCUU (ssRNA) [Ic_S1_P5E.1_K5.1_C5.1_H5.1_A5.1_[T5C]_[T6A]_F5.1_[T8A]_[T9A]_[A10T]_T5.1]
- Kd: 30.9 nM

Binder: UCUCUUUGUAUCGUACUCUCUU (ssRNA) [Ic_S1_P5E.1_K5.1_C5.1_H5.1_A5.1_[T6C]_[A7G]_F5.1_[T9A]_[A10C]_T5.1]
- Kd: 13.9 nM

Binder: UCUCUUUGUAUAACAUUCUCUU (ssRNA) [Ic_S1_P5E.1_K5.1_C5.1_H5.1_A5.1_[T6A]_F5.1_[T8C]_[T9A]_[A10T]_T5.1]
- Kd: 12.6 nM

Binder: UCUCUUUCAAUAUAUCUCUU (ssRNA) [Ib_S1_P3E.1_K3.1_C3.1_H3.1_[G2C]_[T3A]_A3.1_F3.1_T3.1]
- Kd: > 2300 nM

Binder: UCUCUUUGUACUUCCAUCUCUU (ssRNA) [Ic_S1_P5E.1_K5.1_C5.1_H5.1_A5.1_[T5C]_[A7T]_F5.1_[T8C]_[T9C]_T5.1]
- Kd: 666 nM

Binder: UCUCUUUGUACCACCCUCUCUU (ssRNA) [Ic_S1_P5E.1_K5.1_C5.1_H5.1_A5.1_[T5C]_[T6C]_F5.1_[T8C]_[T9C]_[A10C]_T5.1]
- Kd: 523 nM

Binder: UCUCUUUGUACUGCGCUCUCUU (ssRNA) [Ic_S1_P5E.1_K5.1_C5.1_H5.1_A5.1_[T5C]_[A7G]_F5.1_[T8C]_[T9G]_[A10C]_T5.1]
- Kd: 1380 nM

Binder: UCUCUUUGUACCCGCGUCUCUU (ssRNA) [Ic_S1_P5E.1_K5.1_C5.1_H5.1_A5.1_[T5C]_[T6C]_[A7C]_F5.1_[T8G]_[T9C]_[A10G]_T5.1]
- Kd: > 2300 nM

Binder: UCUCUUUGUAUGUUCCUCUCUU (ssRNA) [Ic_S1_P5E.1_K5.1_C5.1_H5.1_A5.1_[T6G]_[A7T]_F5.1_[T9C]_[A10C]_T5.1]
- Kd: 28.6 nM

Binder: UCUCUUUGUACCCAUCUCUCUU (ssRNA) [Ic_S1_P5E.1_K5.1_C5.1_H5.1_A5.1_[T5C]_[T6C]_[A7C]_F5.1_[T8A]_[A10C]_T5.1]
- Kd: 603 nM

Binder: UCUCUUUGUAUACACUUCUCUU (ssRNA) [Ic_S1_P5E.1_K5.1_C5.1_H5.1_A5.1_[T6A]_[A7C]_F5.1_[T8A]_[T9C]_[A10T]_T5.1]
- Kd: 69.2 nM

Binder: UCUCUUUGUAAGCUCCUCUCUU (ssRNA) [Ic_S1_P5E.1_K5.1_C5.1_H5.1_A5.1_[T5A]_[T6G]_[A7C]_F5.1_[T9C]_[A10C]_T5.1]
- Kd: 1500 nM

Binder: UCUCUUUGUACCAUGAUCUCUU (ssRNA) [Ic_S1_P5E.1_K5.1_C5.1_H5.1_A5.1_[T5C]_[T6C]_F5.1_[T9G]_T5.1]
- Kd: 8.03 nM

Binder: UCUCUUUGUAAUUACGUCUCUU (ssRNA) [Ic_S1_P5E.1_K5.1_C5.1_H5.1_A5.1_[T5A]_[A7T]_F5.1_[T8A]_[T9C]_[A10G]_T5.1]
- Kd: 613 nM

Binder: UCUCUUUUCAUAUAUCUCUU (ssRNA) [Ib_S1_P3E.1_K3.1_C3.1_H3.1_[G2T]_[T3C]_A3.1_F3.1_T3.1]
- Kd: > 2300 nM

Binder: UCUCUUUGUAUGGUUGUCUCUU (ssRNA) [Ic_S1_P5E.1_K5.1_C5.1_H5.1_A5.1_[T6G]_[A7G]_F5.1_[A10G]_T5.1]
- Kd: 717 nM

Binder: UCUCUUUGUAUAACGUUCUCUU (ssRNA) [Ic_S1_P5E.1_K5.1_C5.1_H5.1_A5.1_[T6A]_F5.1_[T8C]_[T9G]_[A10T]_T5.1]
- Kd: 34.4 nM

Binder: UCUCUUUGUACAUACGUCUCUU (ssRNA) [Ic_S1_P5E.1_K5.1_C5.1_H5.1_A5.1_[T5C]_[T6A]_[A7T]_F5.1_[T8A]_[T9C]_[A10G]_T5.1]
- Kd: 11 nM

Binder: UCUCUUUGUAAAGCUCUCUCUU (ssRNA) [Ic_S1_P5E.1_K5.1_C5.1_H5.1_A5.1_[T5A]_[T6A]_[A7G]_F5.1_[T8C]_[A10C]_T5.1]
- Kd: 1270 nM

Binder: UCUCUUUGUAUAAUGGUCUCUU (ssRNA) [Ic_S1_P5E.1_K5.1_C5.1_H5.1_A5.1_[T6A]_F5.1_[T9G]_[A10G]_T5.1]
- Kd: 8.53 nM

Binder: UCUCUUUGUAAAGCCAUCUCUU (ssRNA) [Ic_S1_P5E.1_K5.1_C5.1_H5.1_A5.1_[T5A]_[T6A]_[A7G]_F5.1_[T8C]_[T9C]_T5.1]
- Kd: 1060 nM

Binder: UCUCUUUGUACACCGAUCUCUU (ssRNA) [Ic_S1_P5E.1_K5.1_C5.1_H5.1_A5.1_[T5C]_[T6A]_[A7C]_F5.1_[T8C]_[T9G]_T5.1]
- Kd: 425 nM

Binder: UCUCUUUGUAAGCACUUCUCUU (ssRNA) [Ic_S1_P5E.1_K5.1_C5.1_H5.1_A5.1_[T5A]_[T6G]_[A7C]_F5.1_[T8A]_[T9C]_[A10T]_T5.1]
- Kd: > 2300 nM

Binder: UCUCUUUGUACAGUCCUCUCUU (ssRNA) [Ic_S1_P5E.1_K5.1_C5.1_H5.1_A5.1_[T5C]_[T6A]_[A7G]_F5.1_[T9C]_[A10C]_T5.1]
- Kd: 13.5 nM

Binder: UCUCUUUGUACUACCCUCUCUU (ssRNA) [Ic_S1_P5E.1_K5.1_C5.1_H5.1_A5.1_[T5C]_F5.1_[T8C]_[T9C]_[A10C]_T5.1]
- Kd: 656 nM

Binder: UCUCUUUUAAUAUAUCUCUU (ssRNA) [Ib_S1_P3E.1_K3.1_C3.1_H3.1_[G2T]_[T3A]_A3.1_F3.1_T3.1]
- Kd: > 2300 nM

Binder: UCUCUUUGUAUUACCUUCUCUU (ssRNA) [Ic_S1_P5E.1_K5.1_C5.1_H5.1_A5.1_F5.1_[T8C]_[T9C]_[A10T]_T5.1]
- Kd: 496 nM

Binder: UCUCUUUGUAACCAUGUCUCUU (ssRNA) [Ic_S1_P5E.1_K5.1_C5.1_H5.1_A5.1_[T5A]_[T6C]_[A7C]_F5.1_[T8A]_[A10G]_T5.1]
- Kd: 481 nM

Binder: UCUCUUUGUACACGCCUCUCUU (ssRNA) [Ic_S1_P5E.1_K5.1_C5.1_H5.1_A5.1_[T5C]_[T6A]_[A7C]_F5.1_[T8G]_[T9C]_[A10C]_T5.1]
- Kd: 394 nM

Binder: UCUCUUUGUACUCUGUUCUCUU (ssRNA) [Ic_S1_P5E.1_K5.1_C5.1_H5.1_A5.1_[T5C]_[A7C]_F5.1_[T9G]_[A10T]_T5.1]
- Kd: 21.5 nM

Binder: UCUCUUUGUACGGCUGUCUCUU (ssRNA) [Ic_S1_P5E.1_K5.1_C5.1_H5.1_A5.1_[T5C]_[T6G]_[A7G]_F5.1_[T8C]_[A10G]_T5.1]
- Kd: 2200 nM

Binder: UCUCUUUGUAAACAACUCUCUU (ssRNA) [Ic_S1_P5E.1_K5.1_C5.1_H5.1_A5.1_[T5A]_[T6A]_[A7C]_F5.1_[T8A]_[T9A]_[A10C]_T5.1]
- Kd: 88.4 nM
